{"source": "the DeepSol protein solubility set"}
{"experiment": "soluble on expression in E. coli; label from the status in PepcDB or PDB records"}
{"sequence": "MGSDKIHHHHHHMYQEISKLLMYGDLPQDEILYKLGQLFEQFEVGEYNKTELVRDINTQVKRILKVATDYGFDDNLWHNYLTFFLMMSENPFSITCEKVGASDGSVNGLVANDFRIFKKLFDYDFKPIESALGIDCFTQISNYKAIVKKDLMYNHNVSEKVRALSKKLEAAKDEQEFFDVVTGFYKAYGVGMFGLNKAFRIEEHLDGGFSFMPINNMDAVMLDDLIGYEIQKKKLTDNTEAFVQGKKANNVLLFGDSGTGKSTSIKAIVNQYYDDGLRMIEIYKHQFKYLSKIIAAIKNRNYRFIIYMDDLSFEEHEIEYKFLKAVIEGGVETKPDNILIYATSNRRHLIKETWNDRNDQDNSNDKHHSDTVEEKLSLVNRFGVTISYSKPSQKEFFNIVTELARKSGCTLSDEELCREANKWELSHGGISGRTATQFVNYIMANN", "soluble on expression in E. coli": "not soluble"}
{"sequence": "MSLKIKCILIEDEISNEKELYFILRRYDDIEIVGMVQNTDEGIDLVKKLRPQAVFLDINVPNFNGIKLAEEIKDVDSTIAVIFVTAYDKYAVAAFEIKALDYILKPFSIARIEKAVERLKEYINVNKSMKEKLFELICEFNNMERKYIINKIPCENKGKIVLVDVNDIYFFYIKSEKTYVKLNDIIYVTSSTLNDMEKKTGFFRAHRSYLVNLNKIFEIYSWFNGTYKLIMSDYRKSEIPVSRGNVRKLKEIINIEGHHHHHH", "soluble on expression in E. coli": "not soluble"}
{"sequence": "MAKAAAGKKASPVKRVKKGGKAKDPNAPKRAMSAFFFWMQENRERIKKPGMGVADVAKAAGVEWGKLTDKSRWEKKAADDKKRYEVDIANYKKSQ", "soluble on expression in E. coli": "soluble"}
{"sequence": "MGSDKIHHHHHHMSNLKHTRHNSHNVRHHSTGNSMNYVSTGQGEAILLIHGLFGNLDNLKGLGQALEAHHQVIRVDVPNHGLSEHRQQMDYPSLAKAMVDLLDELELERVHIVGHSMGGKIAMATALAYPNRIISLVAADIAPVAYQPRHNAVFAALESLPLEGHTDRRFALAHLLAAGIDDATAQFLLKNLQRSGTGFRWKMNLTGLKSGYPNIIGWHNLPNEPQLVFAGPSLFIRGGDSNYVAAAHRDEILRQFPQAQAKTLEGCGHWLHAQKPTIFNRIVSEFIDKHTV", "soluble on expression in E. coli": "not soluble"}
{"sequence": "MGHHHHHHSHSMKEENLCQAFSDALLCKIEDIDNEDWENPQLCSDYVKDIYQYLRQLEVLQSINPHFLDGRDINGRMRAILVDWLVQVHSKFRLLQETLYMCVGIMDRFLQVQPVSRKKLQLVGITALLLASKYEEMFSPNIEDFVYITDNAYTSSQIREMETLILKELKFELGRPLPLHFLRRASKAGEVDVEQHTLAKYLMELTLIDYDMVHYHPSKVAAAASCLSQKVLGQGKWNLKQQYYTGYTENEVLEVMQHMAKNVVKVNENLTKFIAIKNKYASSKLLKISMIPQLNSKAVKDLASPLIGRS", "soluble on expression in E. coli": "not soluble"}
{"sequence": "DHSARPKLGIDLQGGTRVTLVPQGQNPTEDQLAQAKSILENRVNGMGVSGASVVSDGNTLVITVPGEDTTQARALGQTSQLLFRPVAKPDAPDTTKLLDAMKEMANRWVEVGVLTPQEANDALSNTAKALAQSEGKKPEDAKAPTVTAKEPKEPANSIESEQLRNKVLEVMKKDRQSTDATTQLSASSLLKCDDTPDPLQGTDDPTKPLVACDPSSGQVYVLSPAPLLQGETDQANGKRLTGNEIDTNRPITGGLNPQTGQMEIGFSFKSDNGDQGSATWAKLTQEYLQKQVAITLDSK", "soluble on expression in E. coli": "not soluble"}
{"sequence": "AIAASLSDQSGSIGSEQTRPSGAIPVESLPPQALEQLIASLQQEVEQLADALQQLNFANQRWTLCKQSIEAFAEETTRVDLPGAQSRATDAISSTASAKPETSVEVNQNQRLLVPLSRSLYVLGRVINPERCLIDIGTGYHVERKLADAAEFFDRRLKHVRGSMRQLTLKIDQNQQQMQTIREILVRKLAGAQQAAEHT", "soluble on expression in E. coli": "soluble"}
{"sequence": "MRPESMTDGVPGSDSPAAAAAAASVTTSLHDLQVLVERGTLSGPEKQQADHLVTSLKRELVLRRVGDHLAERTFHELCVRLAVMERDWAAMERHIQQLMPLYELDRQAGIQSPHRDLLVGLNLMRLLAQNRLAEYHMELELLPTTEPQQNPYVLFPFQVEQALTEGSYQKILHIEAGAEWLPFIELLRETTIQEMVTSWAEAYAHVTLEELASMAALPVEQVPALLARVLDCTQYVVQNETVHFIASDHIREAPSQYLLAKEAVSRTMEYIRGLERIV", "soluble on expression in E. coli": "soluble"}
{"sequence": "SDLQAAGAQAQGAAEPSRGPPLPSARGAPPSPEAGFATADHSGQERETEKAMDRLARGTQSIPNDSPARGEGTHSEEEGFAMDEEDSDGELNTWELSEGTNCPPKEQPGDLFNEDWDSELKADQGNPYDADDIQESISQELKPWVCCAPQGDMIYDPSWHHPPPLIPYYSKMVFETGQFDDAED", "soluble on expression in E. coli": "soluble"}
{"sequence": "GRYTQIRFDEDIKRPFPELQQEFLSLLRKSVSEAVQGQKAGTFLSGGTDSSTLAGILTEVTGEPAKTYSIGFEATGYDEMHYARIAARHFATDHHEYYVTPDDVVETIPLIASVFDQPFGNASALPAYYCGRMARNDGLDLLLGGDGGDELFGGNVRYAKQYIFSLYDKIPAPLRNYLLSPFILSLPENKGPKLLRKARSYVAQATVPMPHRMETYNLLAHYGFETVFSPELLAKIDTAQPALLIERTYQDVSHARSLINRMLAFDWKFTLADNDFPKVVQACHLAGMEVAFPFVNDEILAFSLALPPEQKLKGTQLRYFFKQALRGFLPDEIITKQKQGFGLPFGVWLQTHRPLREIAADSLSDLKSRNIIRTDFIDQLLDQHLHEHASYHGTMVWLLMMLEYWFKQH", "soluble on expression in E. coli": "not soluble"}
{"sequence": "MDYLYHPYPSQRMTVFAKNGVVATSQPLAAQAGLDVLKKGGNAIDAAIAAAACLTVVEPTSNGIGGDAFALVWTDGKLYGLNASGYAPKSISIEALKELGYTEMPKYGFAPVTVPGAPAAWAALSKRFGRLPLVETLAPAIAYAENGYPVSPVLGKYWAAAFRTYKEALRGPEFAAWFATFAPGGRAPKIGEVWASPDHAATLRSIAETEAESFYRGELAEKIAAFSKQYGGFLAADDLAEYEPEWVEPISVSYRGYEVWEIPPNGQGIVALMALNIMNGFDVPSVSDVETHHRQIEAMKLAFADGKAYIADRRYMNCSPDELLSESFAAMRRAQIGEEALTPEPGTPPKGGTVYLAAADGEGNMVSFIQSNYMGFGSGLVVPGTGIALHNRGHNFAFDESHPNGLAPRKKPYHTIIPGFLTKGGAPVGPFGVMGGFMQPQGHLQVIMNTVDFDLNPQAALDAPRWQWMEGKTVLVEPHFPRHIAEALARKGHDIRLALDSGLFGRGQIIWRDPDTGVLAAGTEPRTDGAVAAW", "soluble on expression in E. coli": "not soluble"}
{"sequence": "MSSLKGKRIGFGLTGSHCTYEAVFPQIEELVNEGAEVRPVVTFNVKSTNTRFGEGAEWVKKIEDLTGYEAIDSIVKAEPLGPKLPLDCMVIAPLTGNSMSKLANAMTDSPVLMAAKATIRNNRPVVLGISTNDALGLNGTNLMRLMSTKNIFFIPFGQDDPFKKPNSMVAKMDLLPQTIEKALMHQQLQPILVENYQGNDLEHHHHHH", "soluble on expression in E. coli": "not soluble"}
{"sequence": "MGSDKIHHHHHHMTHIVHKGLDFFVKPQKVSLNLNMKIGSLKVHPEDLKLLMKKVPVFMMSYYDNKAFMERELEISSADFPNGVVFFSYYEPVPAELNWDVDKKLISQLTKYFHLYDLVHSINSLIDETEGSSLHIGVYEEWLDRIMVKVPSENTEELRNMLSRFSLLYTTKILWKIFRGNFEELKKRTHEIAYKLYEVAGF", "soluble on expression in E. coli": "not soluble"}
{"sequence": "MGSDKIHHHHHHMPTLDPLSLRLFVSVAEAGTIAAAAEREHIAAAAVSKRISEIEATLGVALLRRTNKGVAPTAAGERLVVLAHRALHELDDIAVQMRDYASGVSGLIRLAANVSSVVQFLPREIQAFAAQHPRIQIQLEEKASAGVVKAVADNAVDIGIFTSVPHGYEVQTFPYHRDFLTLVVPGGHTLAQKQAVAFADTLDFEYVGLPPDTAISQQLTRAAHAHARPVNLRIQVTSYDAQCLMIAAGLGLGVMPHAVAQQQAANLGLATVALTDAWAERELLIAVRSLEALPVACRMLVAHLRGA", "soluble on expression in E. coli": "not soluble"}
{"sequence": "MQKAKNDYGTVVSVLKEDFHGFATGSIGAPDLNTVLTYAFPGECEYPWINFKPGYTQQQGWGGANVWQAGGTVCLNADGENFSHLNTPMLNVSGYQNIAIVRFDGVSDSLFSCLIREIRTLPSFASMPVRRKEWPIRL", "soluble on expression in E. coli": "not soluble"}
{"sequence": "MLSIKQLSYALAVSKTLHFRKAADLCHVRQSTLSTGVSELERQLGIKIFERDNKKVLVTPLGREVLDKASNIMLQLEDMAHLDHSCGEP", "soluble on expression in E. coli": "not soluble"}
{"sequence": "MGSDKIHHHHHHAMSSCGSTKEAASLSSLNGEWNIIEVNGSAIVPAENQELPFIGFDTATGKVYGNSGCNRMMGSIDLNSKPGTIDMSRLGSTRMACPDMTTEQNVLNALGQVKSYKKLGKHNMALCNASNRPVVVLQKKASDVKLSALNGEWKIEEVNGEAIPSGMEKQPFINFDVRKKSIHGNAGCNLINGGFETDKENPRSISFPNVISTMMACPDMEVEGKVMKAINEVKSFDVLSGGGIGFYSADGTLVMVLVKK", "soluble on expression in E. coli": "not soluble"}
{"sequence": "MGSDKIHHHHHHMQGDKHRRRVPFASRAEAHARYGAILTEANRHGAQVVLATLAELGRLDLFFLLVVLLKRKDADNDWCFARCREVAASPDGHLDLWAREHYKSTIITFALTIQDILCTPDITVGIFSHSRPGAKAFLQQIKREFEENPVLRAAYPDVLWDNPRTDAPQWSLDGGIVVKRASNPKEATVEAWGLVDGQPIGKHFSLLVYDDVVTPESVTTPDQIRKTTDALAVSYNLGAHGGRRRFIGTRYHFSDTYKDILDRETAVPRIYPATVDGSVTGLPHFLSPEALAAKRRDMGPYIFGCQMLQNPKADDAAGFKAEWLRYWEPSRDLCERMNRYIIVDPAHSKKAAADYTVMWVVGFGADGYRYVIEGVRDRLNLAERTRELFRLVRAHRPLCVGYERYGLQADVEHIRGEQDRTGYHFDIVELGGAMPKADRIRRLVPLFEQGRIFLPGRMSYRDVEGRWRDLTGEFVQEEYLAFPVCGHDDMLDCLARQVDEALGAVFPDEDDYAASVGGMPNDPHAGALTSLGFDDYDPLGHMRASS", "soluble on expression in E. coli": "not soluble"}
{"sequence": "MARVAIVGTGPTGIYTFFNLIQTDPSHHITLFERGEKAGIGLPYSPEAASKSMLANIASIEIPPIEATYLDWLKGQPDAKLRAYGLDRAELDDRQFTPRLLLGEYFRDQLLSLLDRHRARTEVLETTEVTDVIARNDALFLRAAEREFGPFDRVILATGHVFPDADEATRSYFPSPWSGLIQAEVPPVSVGIMGTSLSSIDAAMAVANQHGRFRRHGEELTFEPATEGLHLTLMSWSGVLPEADFWCPIPYEPLQVMTDDAVAQCAAQADPLDRVFALLQEEIAQADPAYADRIGLATLTADTFGDAYFAAREAQDPFRWARRNLEEVEHNKAHQITVPWRYALLRMHEKVETLVPHLGDADRKRFDGGLKKVFVDNYAAVPSESIRRLLALRDAGLLSVLALGEDYELKREPDRTVIHAKGKTHVFPVFIDARGQKPMESRDMPFPSLRRALMGSKQDIPELDADFALVGVPDYDRHAHLAAIPYLMHDRPFVQGITASAEIGATIARGISQAVGDRAAQGGRRSSAPVVATGLEHHHHHH", "soluble on expression in E. coli": "soluble"}
{"sequence": "MGSDKIHHHHHHMQFCSSDEFASKTMIKWPWKVQESAHQTALPWQEALSIPLLTCLTEQEQSKLVTLAERFLQQKRLVPLQGFELDSLRSCRIALLFCLPVLELGLEWLDGFHEVLIYPAPFVVDDEWEDDIGLVHNQRIVQSGQSWQQGPIVLNWLDIQDSFDASGFNLIIHEVAHKLDTRNGDRASGVPFIPLREVAGWEHDLHAAMNNIQEEIELVGENAASIDAYAASDPAECFAVLSEYFFSAPELFAPRFPSLWQRFCQFYQQDPLQRLHHANDTDSFSATNVH", "soluble on expression in E. coli": "not soluble"}
{"sequence": "MGHHHHHHSHMKGFTATLFLWTLIFPSCSGGGGGKAWPTHVVCSDSGLEVLYQSCDPLQDFGFSVEKCSKQLKSNINIRFGIILREDIKELFLDLALMSQGSSVLNFSYPICEAALPKFSFCGRRKGEQIYYAGPVNNPEFTIPQGEYQVLLELYTEKRSTVACANATIMCS", "soluble on expression in E. coli": "not soluble"}
